Patent US20170145069A1 (Novo Nordisk, published 2017)
*1 amine or outer side, *2 acyl side, *3 side chain or, on linkers, in order; H or OH if unused. Where no end group is shown, it is not given here. Side-chain parts run from the residue outwards. The star is where a group is joined. Decanoyl(10-(4-HOOC-PhO)) = O=C(O)c1ccc(OCCCCCCCCCC(=O)*)cc1; γGlu = O=C(O)[C@H](CCC(=O)[*:2])N[*:1]; AEEA = NCCOCCOCC(=O)O

Experiments:
[1] = target: T1, human GLP-1 receptor (human, UniProt P43220 24-463); test: cell-based or functional assay
[2] = target: T1, human GLP-1 receptor; test: SPA, displacement of 125I-GLP-1(7-36)NH2, BHK membranes, 0.001% HSA
Experimental: Test compounds, membranes, SPA-particles and [¹²⁵I] ]-GLP-1(7-36)NH₂ were diluted in assay buffer. 50 ul (micro liter) buffer (“low albumin” experiment containing 0.001% HSA) was added to Optiplate, and 25 ul of test compounds were added. 5-10 μg membrane protein/sample was added (50 μl) corresponding to 0.1-0.2 mg protein/ml (to be preferably optimised for each membrane preparation). SPA-particles (Wheatgerm agglutinin SPA beads, Perkin Elmer, #RPNQ0001) were added in an amount of 0.5 mg/well (50 μl). The incubation was started with [¹²⁵I]-GLP-1]-(7-36)NH₂ (final concentration 0.06 nM corresponding to 49.880 DPM, 25 μl). The plates were sealed with PlateSealer and incubated for 120 minutes at 30° C. while shaking. The plates were centrifuged (1500 rpm, 10 min) and counted in Topcounter.
The IC₅₀ value was read from the curve as the concentration which displaces 50% of ¹²⁵I-GLP-1 from the receptor.

[3] = target: T1, human GLP-1 receptor; test: cell-based or functional assay; remark: listed apart in the source

Row | Binder | In vitro potency (CRE-luciferase) low albumin EC50 [1] [nM] | IC50 [2] [nM] | In vitro potency (AlphaScreen cAMP; membranes) EC50 [3] [nM]
1 | HAEGTFTSDVSK([Gly-Ser-Ser-Gly-Ser-Ser-γGlu-Decanoyl(10-(4-HOOC-PhO))])YLEEQAAK([Gly-Ser-Ser-Gly-Ser-Ser-γGlu-Decanoyl(10-(4-HOOC-PhO))])EFIAWLVQGRG | 0.0053 | 1.63 | 0.095
2 | HAEGTFTSDVSSYLEGQAAK([AEEA-AEEA-γGlu-Decanoyl(10-(4-HOOC-PhO))])EFIAWLVRGRK([AEEA-AEEA-γGlu-Decanoyl(10-(4-HOOC-PhO))])E [Comparative compound of Example 4a: Compound of Example 46, Chem. 65, in WO 2011/080103] | 0.04 | 2.77 | 0.101
